Results on 1 substance are retold here after US20160375112A1 (priority 2013, published 2016).

The conditions of the data set: human, in vivo.

Take botulinum toxin: the “botulinum toxin-related reactions (hypersensitivity, after injection and before ALDARA)” value was “No botulinum toxin-related reactions”.
